From patent US20190112340A1 (US Dept. of Health and Human Services, published 2019)

Experiments:
Experiment in all cases: ELISA after 1 week at 4 °C
[1] = molecular target: sc9-10 N183GC N428C Long CAV1only
sc9-10 Cav1only 99-361 = molecular target: sc9-10 Cav1only 99-361
RSVF Cav1only = molecular target: RSVF Cav1only
sc9-10 Cav1only 100-362 = molecular target: sc9-10 Cav1only 100-362
sc9-10 Cav1only 99-362 = molecular target: sc9-10 Cav1only 99-362
[2] = molecular target: sc9-10 A149C Y458C Long CAV1only
sc9-10 Cav1only 369-455 = molecular target: sc9-10 Cav1only 369-455
sc9-10 Cav1only 146-458 = molecular target: sc9-10 Cav1only 146-458
sc9-10 Cav1only 98-361 = molecular target: sc9-10 Cav1only 98-361
sc9-10 Cav1only 100-361 = molecular target: sc9-10 Cav1only 100-361
sc9-10 Cav1only 98-362 = molecular target: sc9-10 Cav1only 98-362
sc9-10 Cav1only = molecular target: sc9-10 Cav1only

B1: D25 antibody (antibody, V domains shown)
VH: QVQLVQSGAEVKKPGSSVMVSCQASGGPLRNYIINWLRQAPGQGPEWMGGIIPVLGTVHYAPKFQGRVTITADESTDTAYIHLISLRSEDTAMYYCATETALVVSTTYLPHYFDNWGQGTLVTVSS
VL: DIQMTQSPSSLSAAVGDRVTITCQASQDIVNYLNWYQQKPGKAPKLLIYVASNLETGVPSRFSGSGSGTDFSLTISSLQPEDVATYYCQQYDNLPLTFGGGTKVEIKR
B1 was tested. Which “ELISA signal (antigenicity)” value [1] did it give?
The value was 0.502.

And the “ELISA signal (antigenicity)” value (sc9-10 Cav1only 99-361)?
The value was 2.89.

And the “ELISA signal (antigenicity)” value (RSVF Cav1only)?
The value was 3.33.

What about the “ELISA signal (antigenicity)” value (sc9-10 Cav1only 100-362) of the same binder?
The value was 0.416.

And the “ELISA signal (antigenicity)” value (sc9-10 Cav1only 99-362)?
The value was 1.39.

And the “ELISA signal (antigenicity)” value [2]?
The value was 2.88.

What about the “ELISA signal (antigenicity)” value (sc9-10 Cav1only 369-455) of the same binder?
The value was 2.94.

And the “ELISA signal (antigenicity)” value (sc9-10 Cav1only 146-458)?
Its value is 2.34.

And the “ELISA signal (antigenicity)” value (sc9-10 Cav1only 98-361)?
Its value is 1.84.

What about the “ELISA signal (antigenicity)” value (sc9-10 Cav1only 100-361) of the same binder?
The value was 0.92.

What about the “ELISA signal (antigenicity)” value (sc9-10 Cav1only 98-362) of the same binder?
Its value is 0.957.

And the “ELISA signal (antigenicity)” value (sc9-10 Cav1only)?
Its value is 3.6.
